Laboratory results: PMC8324772

What was measured:
[1] = target: Klebsiella quasipneumoniae Qmp M1-977 TolC (KqTolC), recombinant, C-terminal His6 (Klebsiella quasipneumoniae); test: ITC + other: stopped-flow fluorescence; koff not measured (too slow): estimated from the Kd by ITC and the kon by stopped-flow, assuming Kd = koff/kon
[2] = target: Klebsiella quasipneumoniae Qmp M1-977 TolC (KqTolC), recombinant, C-terminal His6 (Klebsiella quasipneumoniae); test: ITC; KlebC constructs in the syringe (76-89 µM), TolC trimer in the cell (5-7.6 µM); 25 mM Tris-HCl pH 7.5, 1% (w/v) β-OG; no feedback mode, 750 s between injections; single set of identical sites
[3] = target: Klebsiella quasipneumoniae Qmp M1-977 TolC (KqTolC), recombinant, C-terminal His6 (Klebsiella quasipneumoniae); test: stopped-flow fluorescence (pre-equilibrium, tryptophan emission); 0.5 µM KqTolC with excess KlebC_(1-254), pseudo-first-order, 25 °C; kapp from single exponential fits, kon from the gradient of kapp against concentration
[4] = target: TolC of Klebsiella quasipneumoniae Qmp M1-977, endogenous (Klebsiella quasipneumoniae (endogenous in K. quasipneumoniae Qmp M1-977))
[5] = target: Klebsiella quasipneumoniae Qmp M1-977 TolC (KqTolC), recombinant, C-terminal His6 (Klebsiella quasipneumoniae); test: cryo-EM structure; KqTolC-KlebC_(1-254) mixed in β-OG and transferred into amphipol A8-35 without cross-linking; only KqTolC resolved; 3.4 Å
[6] = target: Klebsiella quasipneumoniae Qmp M1-977 TolC (KqTolC), recombinant, C-terminal His6 (Klebsiella quasipneumoniae); test: stopped-flow fluorescence (pre-equilibrium, loss of Trp-to-AEDANS FRET); TolC in excess, pseudo-first-order, 25 °C; single exponential fits
[7] = target: Klebsiella quasipneumoniae Qmp M1-977 TolC (KqTolC), recombinant, C-terminal His6 (Klebsiella quasipneumoniae); test: stopped-flow fluorescence (pre-equilibrium, loss of Trp-to-AEDANS FRET); Q204C^AEDANS KlebC_(1-254) in excess, pseudo-first-order, 25 °C; single exponential fits
[8] = target: Klebsiella quasipneumoniae Qmp M1-977 TolC (KqTolC), recombinant, C-terminal His6 (Klebsiella quasipneumoniae); test: equilibrium fluorescence (Trp-to-AEDANS FRET within KlebC); 1 µM Q204C^AEDANS KlebC_(1-254) without and with 1 µM KqTolC trimer; excitation 280 nm, FRET signal at 490 nm, 25 °C

With KlebC_(1-254) (domain or fragment) the koff [1] was 5e-05 s⁻¹, the Kd [2] was 35 nM and the dH [2] was 30.6 kcal/mol. For the same substance, the stoichiometry N (binding sites per TolC trimer) [2] was 0.9 and the kon [3] was 1900 M⁻¹ s⁻¹.
KlebC_(51-254) (domain or fragment) gave a growth of K. quasipneumoniae on LB-Agar with 1 mg ml^−1 Rhodamine 6G after serial dilution in 1 or 10 µM KlebC (51-254) [4] of 4 log, a Kd [2] of 368 nM and a dH [2] of 20.8 kcal/mol. It also gave a stoichiometry N (binding sites per TolC trimer) [2] of 1.34.
“Klebsiella quasipneumoniae Qmp M1-977 TolC (KqTolC), recombinant, C-terminal His6 (natural protein)” showed a stoichiometry N [5] of 3.
With “Q204C^AEDANS KlebC_(1-254) (domain or fragment)” the kon [6] was 6700 M⁻¹ s⁻¹, the kon [7] was 2900 M⁻¹ s⁻¹ and the decrease of the Trp-to-AEDANS FRET signal at 490 nm upon addition of equimolar TolC trimer [8] was 77%.
